Test results as given in article PMC12749748 (2025).

Target: VHL (Homo sapiens, UniProt P40337)
Assay: SPR

VHL, sequence (P40337 whole entry): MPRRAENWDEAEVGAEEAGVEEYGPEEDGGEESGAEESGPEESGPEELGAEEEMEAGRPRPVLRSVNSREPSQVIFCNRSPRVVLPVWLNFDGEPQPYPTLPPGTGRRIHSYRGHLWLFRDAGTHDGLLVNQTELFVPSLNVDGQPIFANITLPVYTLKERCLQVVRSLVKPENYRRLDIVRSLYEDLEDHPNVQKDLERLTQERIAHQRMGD

Kd: > 10 µM
B1: IRE1 (protein)
chain: IFGSTSTVTLPETLLFVSTLDGSLHAVSKRTGSIKWTLKEDPVLQVPTHVEEPAFLPDPNDGSLYTLGSKNNEGLTKLPFTIPELVQASPCRSSDGILYMGKKQDIWYVIDLLTGEKQQTLSSAFADSLCPSTSLLYLGRTEYTITMYDTKTRELRWNATYFDYAASLPEDDVDYKMSHFVSNGDGLVVTVDSESGDVLWIQNYASPVVAFYVWQREGLRKVMHINVAVETLRYLTFMSGEVGRITKWKYPFPKETEAKSKLTPTLYVGKYSTSLYASPSMVHEGVAVVPRGSTLPLLEGPQTDGVTIGDKGECVITPSTDVKFDPGLKSKNKLNYLRNYWLLIGHHETPLSASTKMLERFPNNLPKHRENVIPADSEKKSFEEVINLVDQTSENAPTTVSRDVEEKPAHAPARPEAPVDSMLKDMATIILSTFLLIGWVAFIITYPLSMHQQQQLQHQQFQKELEKIQLLQQQQQQLPFHPPGDTAQDGELLDTSGPYSESSGTSSPSTSPRASNHSLCSGSSASKAGSSPSLEQDDGDEETSVVIVGKISFCPKDVLGHGAEGTIVYRGMFDNRDVAVKRILPECFSFADREVQLLRESDEHPNVIRYFCTEKDRQFQYIAIELCAATLQEYVEQKDFAHLGLEPITLLQQTTSGLAHLHSLNIVHRDLKPHNILISMPNAHGKIKAMISDFGLCKKLAVGRHSFSRRSGVPGTEGWIAPEMLSEDCKENPTYTVDIFSAGCVFYYVISEGSHPFGKSLQRQANILLGACSLDCLHPEKHEDVIARELIEKMIAMDPQKRPSAKHVLKHPFFWSLEKQLQFFQDVSDRIEKESLDGPIVKQLERGGRAVVKMDWRENITVPLQTDLRKFRTYKGGSVRDLLRAMRNKKHHYRELPAEVRETLGSLPDDFVCYFTSRFPHLLAHTYRAMELCSHERLFQPYYFHEPPEPQPPVTPDAL
